These results are taken from PMC7939381, “MMP activation–associated aminopeptidase N reveals a bivalent 14-3-3 binding motif” (The Journal of Biological Chemistry, 2020).

Primed or numbered codes have the meaning given here. Where no end group is shown, it is not given here. [ ]: non-standard residue; d: D form. The star is where a group is joined. FITC = O=C1OC2(c3ccc(O)cc3Oc3cc(O)ccc32)c2ccc(NC(=S)*)cc21; pS = N[C@@H](COP(=O)(O)O)C(=O)O; PEG2″ = not defined here

Common to all, as to experiment: fluorescence polarisation; direct binding: dilution series of 14-3-3 protein added to FITC-labeled peptide (30 nM stock, 5 µl in 15 µl); 10 mM HEPES pH 7.4, 150 mM NaCl, 2 mM DTT, 0.01% Tween 20; 60 min at room temperature, read at 25 °C; four-parameter fit
What all share (details): both partners purified

The target of assay [1] is T1, 14-3-3σ, full length, N-terminally His6-tagged (human, UniProt P31947 1-248).
T1 construct: 14-3-3 sigma (stratifin), human, full length; no tag cleavage is described for the full-length proteins; also called stratifin; SFN; source: E. coli BL21(DE3), purified (HisTrap, SEC)
T1 sequence (looked up): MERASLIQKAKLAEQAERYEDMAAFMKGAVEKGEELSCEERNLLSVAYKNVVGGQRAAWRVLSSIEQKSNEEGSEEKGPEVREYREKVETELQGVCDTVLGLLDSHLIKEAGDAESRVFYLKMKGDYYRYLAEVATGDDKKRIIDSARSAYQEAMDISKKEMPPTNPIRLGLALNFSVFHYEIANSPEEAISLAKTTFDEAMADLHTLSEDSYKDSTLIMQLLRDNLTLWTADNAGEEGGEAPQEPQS

The target of assay [2] is T2, 14-3-3ζ, full length, N-terminally His6-tagged (human, UniProt P63104 1-245).
T2 construct: 14-3-3 zeta, human, full length; source: E. coli BL21(DE3), purified (HisTrap, SEC)
T2 sequence (looked up): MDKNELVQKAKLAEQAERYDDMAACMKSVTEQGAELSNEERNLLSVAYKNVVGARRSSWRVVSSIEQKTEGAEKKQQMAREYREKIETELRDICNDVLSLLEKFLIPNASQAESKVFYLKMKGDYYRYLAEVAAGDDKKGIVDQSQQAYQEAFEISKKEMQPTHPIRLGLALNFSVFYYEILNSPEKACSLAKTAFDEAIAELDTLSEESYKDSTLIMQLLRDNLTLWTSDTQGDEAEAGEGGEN

The target in assay [3] is T3, 14-3-3γ, full length, N-terminally His6-tagged (human, UniProt P61981 1-247).
T3 construct: 14-3-3 gamma, human, full length; source: E. coli BL21(DE3), purified (HisTrap, SEC)
T3 sequence (looked up): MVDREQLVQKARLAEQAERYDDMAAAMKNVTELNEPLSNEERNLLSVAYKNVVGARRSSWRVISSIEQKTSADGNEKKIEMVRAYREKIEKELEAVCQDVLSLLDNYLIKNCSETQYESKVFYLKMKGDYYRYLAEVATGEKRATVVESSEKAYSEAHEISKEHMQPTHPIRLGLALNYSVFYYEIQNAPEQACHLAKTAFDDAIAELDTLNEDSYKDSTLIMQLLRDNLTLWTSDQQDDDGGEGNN

Assay [4] concerns the target T4, 14-3-3η, full length, N-terminally His6-tagged (human, UniProt Q04917 1-246).
T4 construct: 14-3-3 eta, human, full length; also called His6-14-3-3η; source: E. coli BL21(DE3), purified (HisTrap, SEC); also in E. coli cell lysate (pulldown); not shown: His6, N-terminal, kept
T4 sequence (looked up): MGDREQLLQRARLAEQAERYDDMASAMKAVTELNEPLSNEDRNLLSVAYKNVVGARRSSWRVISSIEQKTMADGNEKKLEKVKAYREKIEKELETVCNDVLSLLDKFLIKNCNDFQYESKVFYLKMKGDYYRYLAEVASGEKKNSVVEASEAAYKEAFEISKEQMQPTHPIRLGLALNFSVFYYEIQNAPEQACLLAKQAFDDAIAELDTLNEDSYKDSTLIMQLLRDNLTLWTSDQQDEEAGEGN

For assay [5], the target named is T5, 14-3-3θ, full length, N-terminally His6-tagged (human, UniProt P27348 1-245).
T5 construct: 14-3-3 theta (printed as τ in the introduction, θ in the results), human, full length; also called 14-3-3τ; source: E. coli BL21(DE3), purified (HisTrap, SEC)
T5 sequence (looked up): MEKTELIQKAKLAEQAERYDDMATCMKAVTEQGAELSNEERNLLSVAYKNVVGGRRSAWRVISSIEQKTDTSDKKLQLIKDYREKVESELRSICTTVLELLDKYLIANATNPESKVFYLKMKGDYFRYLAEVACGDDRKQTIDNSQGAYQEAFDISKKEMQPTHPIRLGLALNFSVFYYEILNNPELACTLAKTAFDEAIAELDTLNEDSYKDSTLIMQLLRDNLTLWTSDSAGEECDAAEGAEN

The target in assay [6] is T6, 14-3-3ε, full length, N-terminally His6-tagged (human, UniProt P62258 1-255).
T6 construct: 14-3-3 epsilon, human, full length; source: E. coli BL21(DE3), purified (HisTrap, SEC)
T6 sequence (looked up): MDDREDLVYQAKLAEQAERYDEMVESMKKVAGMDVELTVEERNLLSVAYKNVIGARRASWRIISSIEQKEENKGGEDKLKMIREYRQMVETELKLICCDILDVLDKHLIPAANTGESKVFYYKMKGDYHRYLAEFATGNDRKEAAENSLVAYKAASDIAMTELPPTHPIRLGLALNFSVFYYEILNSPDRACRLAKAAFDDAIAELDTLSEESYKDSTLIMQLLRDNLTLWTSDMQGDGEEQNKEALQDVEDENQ

B1: FITC-labeled peptide 1, APN 38–46 pSer43 (peptide)
peptide: {FITC-PEG2″}-NKNAN[pS]SPV
notes: aminopeptidase N (APN, CD13), human, residues 38-46; also called site 1; source: synthetic peptide (Fmoc SPPS, HPLC purified)
As a reminder, the Kd is a measure of binding affinity in units of concentration. Higher therefore signals a looser complex. Turning to B1, the Kd in assay [1] came to 1700 ± 100 nM; in assay [4] it was 320 ± 40 nM. Moreover, the binding result in assay [2], in assay [3], in assay [5] and in assay [6] was “binds” in each case.
